According to the nanobody polyreactivity screen of Harvey et al. (2022):

Assay: yeast display, Sf9 membrane polyspecificity reagent, FACS + sequencing; frameworks hold sequencing errors
Procedure, shortened: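 Galactose induction of a Saccharomyces cerevisiae BJ5465 synthetic nanobody display library ran 36–48 hours. The cells were then stained for 1 hour at 4 °C with 10% biotinylated, detergent-solubilized Sf9 membrane reagent, pulled down on streptavidin microbeads and FACS-sorted into low and high (top ~1%) gates on expression and reagent-binding fluorescence. Labels for polyreactivity follow the gate of origin.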

Sequence	polyreactivity (PSR sort gate)
QVQLVESGGGLVQAGGSLRLSCAASGSISWKYAMGWSRQAPGKERELVAAISWSGSSTYYADSVKGRFTISRDNAKNTVYLQMNSLKPEDTAVYYCAADRVSRLTNRREYWGQGTQVTVSS	high polyreactivity
QVQLVESGGGLVQAGGSLRLSCAASGSIFGSYAMGWYRQAPGKERELVAAISWRGGRTYYADSVKGRFTISRDNAKNTVYLQMNSLKPEDTAVYYCAAERHARSSYEYWGQGTQVTVSS	low polyreactivity
QVQLVETGGGLVQAGGSLRLSCAASGRTFWTNAMGWYRQPPGKEREFVAAISWRGASTFYADSVKWRFTISRDNAKNTVYLQMNSLIPEDTAVFYCAAQSRTRSFYGKYDSWGQGNQVTVSS	low polyreactivity
QVQLVESGGGLVQAGGSLRLSCAASGSTFVPYAMGWYRQAPGKERELVATIRWRGDRTYYADSVKGRFTSSRDNAKKTVYLQMNSLKPEDTAVYYCNTAGWSFYSGRYDYWGQGTQVTVSS	high polyreactivity
QVQLVESGGGLVQAGGSLRLSFAASGRIFPFYAMGWYRQEPGKERELVAALSWNGGSTFYADSVKGRFTISRDNAKNSVYLQMNSLKPEDTAVYYCAADCYATYFLYDSCGQGTQVTVSS	low polyreactivity
QVQLVESGGGLVQAGGSLRLSCAASGITFDLYAMGWYRQAPGKERELVAAISISSTSTYYADSVKGRFTISRDNAKNTVYLQMNSLKPEDTAVYYCNAVPSSKTFWFDYWGQGTQVTVSS	low polyreactivity
QVQLVESGGGLVHAGGSLRLSCAASGSIFYNYAKGWYRQAPGKERELVAAIDSGGSTYYADSVKGRFTISRDNAKNTVYLQMNSLKPEDSAVYSCAADTYWFVYYGYDYWGQGTQVTVSS	low polyreactivity
QVQLEESGGGLVQAGGRLRLSCAASGIIFEYYAMGGYRQAPGTERELVAAIFSGGSTYYADSVKGRFTISGDNAKNNVYLQMNSLKPEDTAVYYCAADYFAWGQGTQVTVSS	high polyreactivity
QVQLVESGGGLVQAGGSLRLSCAASGFTFGLYGMGWYRQAPGKERELVAAISSSGGDTYYADSVKGRFTISRDNAKNTVYLQMNSLKPEDTAVYYCAADRLPQYDYWGQGTQVTVSS	low polyreactivity
QVQLVESGGGLVQAGGSLRLSCAASGSTYYLYAMGWYRQAPGKESEFVARISASGGNTYYADSVKGRFTISRDNAKNTVYLQMNRLIPEDTAVFYCAARVRGRNASDYDYYYWGQGTQVTVSS	high polyreactivity
QVQLVESGGGLVQAGGSLRLSCAASGYTFYANAMGWYRQAPGKEREFVASNTWSGGSTYYADSVKGRFTISRDTAKITVYLQMNSLKPEDTAVYYWAAESWFNYDYWGQGTQVTVSS	low polyreactivity
QVQLVESGGGLVQAGGSLRLSCAASGSTFTKYAMGWYRQEPGKDREFVAGINYSGGSTYYADSVKVRFTISRDNAKNTVYLLMKSLKPEDTAVYYCNARKQNRRGAKYDYWGQGTQVTVSS	high polyreactivity
QVQLVESGGGLVQAGGSLRLSCAASGSIFNWYTMGWYRQAPGKERELVAVITQSGGSTYYADSVKGRFTISRDNAKNTVYLQMNSLKPEDTAVYYCAKRYWSYQYGYRMYYWGQGTQVTVSS	high polyreactivity
QVQLVESGGGLVQAGGSLRLSCAASGSIFTDYTMGWSRQAPGKERELVAAISWIGDSTDYADSVKGRFTISRDNAKNTVYLQMNSLKPEDTAVYYCAKSRAGRYNDYDYWGQGTQVTVSS	low polyreactivity
QVQLVESGGGLVQAGGSLRLSCAASGGIFTLNGMGWYRQAPGKERELVAVITSSGGSTYYADSVKGRFTISRDNAKNTVYLQMNSLKPEDTAVYYCAAQLVRYVGYYRFDYWGQGTQVTVSS	low polyreactivity
QVQLVESGGGLVQAGGSLRLSCAASGFTLPVYAMGWYRQAPGKERELVARITWSAGRTYYADSVKGRFTISRDNAKNTVYLQMNSLKPEDTAVYYCAAGPVSQQHSPGPHDYWGQGTQVTVSS	high polyreactivity
QVQLVESGGGLVQAGGSLRLSCAASARTFKPYAMGWYRQAPGKERELVAAISTRGGSTYYADSVKGRFTISRDNAKNTVYLQMNSLKPEDTAVYYCAATQPCRDYDYWGQGTQVTVSS	low polyreactivity
QVQLVESGGCLVQAGGSLRLSCAASGSTFPIYAMGWYRQAPGKERELVARITWNGGRTYYADSVKGRFTISRDNAKNTVYLQMNSLKPEDTAVYYCNARRYLRGYGYGYWGQGTQVTVSS	high polyreactivity
QVQLVESGGGLVQAGGSLRLSCAASGFTFSPYVMGWYRQAPGKERELVATITAGGSSTFYADSVKGRFTISRDNAKNTVYLQMNSLKPEDTAVYYCNTVSPSFVYESTSDRFDYWGQGTQVTVSS	low polyreactivity
QVQLVESGGGLVQAGGSLRLSCAASGFTFVRYAMGWYRQAPGKERELVAGISRRGGSTYYADSVKGRFTISRDNAKNTVYLQMNSLKPEDTAVYYCAAKPIYYSRGYYWGQGTQVTVSS	high polyreactivity
QVQLVESGGGLVQAGGSLRLSCAASGSIFNRYAMGWYRPAPGKERELVAAISRSGGRTYYADSVKGRFTISRDNAKNTVYLQMNSLKPEDTAVYYCAADKYYRQHEFDYWGQGTQVTVSS	high polyreactivity
QVQLVESGGGLVQAGGSLRLSCAASGSIFQPNAMGWYRQAPGKERELVASIRGRGGDTYYADSVKGRFTISRDTAKNTVYLQMNSLKPEDTAVYYCAADYRWGQGTQVTVSS	low polyreactivity

Sequence	polyreactivity (PSR sort gate)
QVQLVESGGGLVQAGGSLRLSCAASGRIFQGNAMGWYRQAPGKERELVAAITTSGGSTYYADSVKGRFTISRDNAKNTVYLQMNSLKPEDTAVYYCNVDPRKRSYDYWGQGTQVTVSS	high polyreactivity
QDQLVESGGGLLQAGGSLRLSCAASGFTFSIYAMGWYRQAPGKERELVAAISSSSSTNYADSVKVRFTISRDNAKNTVYLQMNSLKPEDTEVYYCNADNVGNTFTWYDYWGQGTQVTVSS	low polyreactivity
QVQLVESGGGLVQAGGSLRLSCAASGSIFAINAMGWYRQAPGKERELVARISWSGGRTYYADSVKGRFTISRDNAKNTVYLQMNSLKPEDTAVYYCAKRYYKSLNRDEFDSWGQGTQVTVSS	high polyreactivity
QVQLVESGGGLVQAGGSLRLSCAASGRTSYVYAMGWYRQAPGKERELVAAITSSGGSTYYADSVKGRFTISRDNAKNTVYLQMNSLKPEDTAVYYCAASRVRYSYGYPYYYWGQGTQVTVSS	high polyreactivity
QVQLVESGGGLVQAGGSLRLSCAASGNIFVSYDLGWYRQAPGKERELVAAISWRGGSTYYADSVKGRFTNSRDNAKNTVFLKMNSLKPEDTAVYYCSVDDWLDWLFADFGYWGQGTQVTVSS	low polyreactivity
QVQLVDSGGGLVQAGGSLRLSCAASGRIFYRYAMGWYRQAPGKERELVATISRGGITNYADSVKGRFTISRDNAKNTVYLEMNSLKPEDTAVYYCNAVYGFRRLFEYEYDYWGQGTQVTVSS	high polyreactivity
QVQLVESGGGLVQARGSLRLSCAASGSIFYRNAMGWYRQAPGKETELVARIDRGGITHYADSVKGRFTISRDNAMNTVYLQMNSLKPEDTAVYYCAARKGYWYPTGHGARRYDYWGQGTQVTVSS	high polyreactivity
QVQLVDSGGGLVQAGGSLRLTCAASGSIFNYYTMGWSRQAPGKERELVAAISSSGGSTYYADSVKGRFTISRDNAKNTVYLQMNSLKPVDTAVYFCNTYPPAHREYESWGQGTQLTVSS	high polyreactivity
QVQLVESGGGLVQAGGSLRLSCAASGSIFWGNAMGWYRQAPGKERELVAAITGSGGSSYYADSVKGRFTISRDNAKNRVYLLMNSVKPEDTAVYYCADLFRTFYYWGQGTQVTVSS	high polyreactivity
QVQLVESGGGLVQAGGSLRVSCAASGRTFGGYAMGWYRQAPGKERELVAAISDRGTSTYYADSVKGRFTISRDNAKNTVYLQMNSLKPEDTAVYYCAARINYWGYYYWGQGTQVTVSS	high polyreactivity
QVQLVESGGGLVQAGGSLRLSCAASGSTFAYYAMGWYRQAPGKERELVASISWRGGSTYYADSVKGRFTNSRDNAKNTVYLQMNSLKPEDTAVYYCAAGRFYIWSRSQEYDYWGQGTQVTVSS	low polyreactivity
QVQLVESGRGLLQAGGSLRLSCASSGCIFTSYAMGWYRPAPGKVRELVAGITRGGRTYYADSVKGRFTISRDKAKNTVYLQSNSLKPEDTAVYYCAALSSRHFVFTVDYWGQATQVTVSS	high polyreactivity
QVQLVESGVGLVQAGGTLRLSCAASGSIFDWNVIGWYRQTPGKERELVASISESTDSTYYADSVKGRFTISRDNAKNTVYFQMNSLKPEDTAVYYCATAYPEWAVWGYDYWGQGTQVTLSS	low polyreactivity
QVQLVESGGGLVQAGGSLRLSCAASGFIFYSNAMGWYSQAPGKVRELVAAISRGGGSTYYADSVKGRFTISRDNAKNTVYLQMNSLKPEDTAVYYCAKRRLSPQDDYWGQGTQVTLSS	high polyreactivity
QVQLVESGGLLVQAGGSIRITCAASGSTLWFNAMGWYRQAPGKERELVAAINWSGGSTYYADSVKGRFSISRDNAKITVYVQMTSLKPEDTAVYYCAAFYQYVHYVWYDYWGQGSQVTVSS	low polyreactivity
QVQLVESGGGLVQAGGSLRISCAASGSTFYYNAMGWYRQAPGKERELVAAISYSGGRTYYADSLTGRFTISRDNAKNTVYLQMNSLKPEDTAVYYCATGQPILALRYAYGYWGQGTQVTVSS	low polyreactivity
QGQLVESGGGLFQAGGSLRLSCAASGRIFRRYAMGWDIQAPGKERELVAAISRGGSTYYADSVKGRFTISRDNAKNTVYLQMNSLKPEDTAVYYCAAYSQSTSFGGYDSWGQGTQVTVSS	high polyreactivity
QVQLVESGGGLVQAGGRLRLSCAASGSTVVFNAMGWYRQAPGKERELVAAISKSGGSTYYADSVKGRFTISRDNAKNTVYLQMNSLKPEDTAVYYCNRVSRKILDGDYDYWGQGTQVTVSS	high polyreactivity
QVQLVESGGGLVQAGGSLRLSCAASNSSINAMGWYRQAPGKERELVAAIRWSGSSTYYADSEKGRFPISRDNAKTTVYLQMNSLKPEDTAVYYCAADTTTGDRGFDYWGQGTQVTVSS	high polyreactivity
QVQLVESGGGLVQAGGSLRLSCAASGRIFNRYAMGWYRQAPGKERELVAAINYRGSSTYYADSVKGRFTISRDNAKNTGYLQMNSLKPEVTAVYYCKTYGQTDTYWRYYYWGQGTQVTVSS	high polyreactivity
QVQLVESGGGLVQAGGSLRLSCAASGSTFKRYAMGWYRQAPGKERELVAAISLSSGSTYYADSVKGRFTISRDNAKNTVYLQMNSLKPEDTAVYYCNAAKTYPDVYEYDYWGQGTQVTVSS	high polyreactivity
